# Laboratory results reported in doi:10.1101/2022.06.30.497818.
# Target: GST-tagged CDK2 (human cyclin-dependent kinase 2, 1-298) (human) (UniProt P24941)
# Experiment: SPR
substance,measurement,value
Bovine cyclin A (171-432 with a C-terminal 6His tag) (from UniProt P30274 171-430) (domain or fragment),Kd,2.8 nM
